Paper PMC1783898

Target: SARS-CoV main protease, full-length wild type (3CLpro) (SARS-CoV) (UniProt P0C6X7)
Test: AUC

## SARS-CoV main protease, full-length wild type (3CLpro) (from UniProt P0C6X7) (enzyme)
  stoichiometry N: 2
